According to patent publication US20180155451A1 (published 2018):
Numbering of substitutions follows the chain as printed. Numbers in names are those of the source.

T1: FcγRIIb extracellular domain with C-terminal His tag (human, UniProt P31994 43-217)
T1 construct: extracellular domain; Soluble receptor expressed in FreeStyle293 cells, used as analyte in Biacore; also called FcgRIIb; CD32B; not shown: His tag at the C terminus
T1 sequence (looked up): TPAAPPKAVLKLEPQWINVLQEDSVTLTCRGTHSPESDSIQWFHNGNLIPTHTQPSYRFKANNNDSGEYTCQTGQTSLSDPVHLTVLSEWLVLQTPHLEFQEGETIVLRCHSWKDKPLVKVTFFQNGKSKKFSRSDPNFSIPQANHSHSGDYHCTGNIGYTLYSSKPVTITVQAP

T2: FcgRIIb (human, UniProt P31994 43-217)
T2 construct: extracellular domain; also called FcγRIIb; not shown: His tag attached to the C terminus
T2 sequence (looked up): T1 sequence (looked up)

B1: GpH7-A5/GpH7-B3 variant S239_04F/GpL16-k0 (antibody, human IgG1, kappa)
heavy 1: not shown
heavy 2: not shown
light: DIVMTQSPLSLPVTPGEPASISCQASESLVHSNRNTYLHWYLQKPGQSPQLLIYKVSNRFSGVPDRFSGSGSGTDFTLKISRVEAEDVGVYYCSQNTHVPPTFGQGTKVEIERTVAAPSVFIFPPSDEQLKSGTASVVCLLNNFYPREAKVQWKVDNALQSGNSQESVTEQDSKDSTYSLSSTLTLSKADYEKHKVYACEVTHQGLSSPVTKSFNRGEC
notes: Heterodimerized anti-glypican-3 IgG1; substitution in only one H chain; also called S239F; He Ab
B2: GpH7-A5/GpH7-B3 variant S239_11K/GpL16-k0 (antibody, human IgG1, kappa)
heavy 1: not shown
heavy 2: not shown
light: B1 light
notes: Heterodimerized anti-glypican-3 IgG1; substitution in only one H chain; also called S239K; He Ab
B3: GpH7-A5/GpH7-B3 variant S239_12R/GpL16-k0 (antibody, human IgG1, kappa)
heavy 1: not shown
heavy 2: not shown
light: B1 light
notes: Heterodimerized anti-glypican-3 IgG1; substitution in only one H chain; also called S239R; He Ab
B4: H240-Kn061 (Y234H)/H240-Hl071/L73-k0 (antibody, human IgG1, kappa)
heavy 1: QDQLVQSGAEVKKPGASVKVSCKASGFNIKDTYIQWVRQAPGQGLEWMGRIDPLRKQTKYREKFEGRVTITADTSTNTAYMELSSLRSEDTAVYYCVRSGREFDYWGQGTLVTVSSASTKGPSVFPLAPSSKSTSGGTAALGCLVKDYFPEPVTVSWNSGALTSGVHTFPAVLQSSGLYSLSSVVTVPSSSLGTQTYICNVNHKPSNTKVDKKVEPKSCDKTHTCPPCPAPEHYWGPSVFLFPPKPKDTLMISRTPEVTCVVVDVSDEDPEVKFNWYVDGVEVHNAKTKPREEQYNATYRVVSVLTVLHQDWLNGKEYKCKVSNKALPAPIEKTISKAKGQPREPQVCTLPPSRDELTKNQVSLWCLVKGFYPSDIAVEWESNGQPENNYKTTPPVLDSDGSFFLYSKLTVDKSRWQQGNVFSCSVMHEALHNHYTQKSLSLSP
heavy 2: QDQLVQSGAEVKKPGASVKVSCKASGFNIKDTYIQWVRQAPGQGLEWMGRIDPLRKQTKYREKFEGRVTITADTSTNTAYMELSSLRSEDTAVYYCVRSGREFDYWGQGTLVTVSSASTKGPSVFPLAPSSKSTSGGTAALGCLVKDYFPEPVTVSWNSGALTSGVHTFPAVLQSSGLYSLSSVVTVPSSSLGTQTYICNVNHKPSNTKVDKKVEPKSCDKTHTCPPCPAPELLGGPSVFLFPPKPKDTLMISRTPEVTCVVVDVSHEDPEVKFNWYVDGVEVHNAKTKPREEQYNSTYRVVSVLTVLHQDWLNGKEYKCKVSNDALPMPIEETISKAKGQPREPQVYTLPPSRCELTKNQVSLSCAVKGFYPSDIAVEWESNGQPENNYKTTPPVLDSDGSFFLVSKLTVDKSRWQQGNVFSCSVMHEALHNHYTQKSLSLSP
light: DIQMTQSPSSLSASVGDRVTITCRASQDIHKYIAWYQQKPGQAPRLLIQYTSTLQPGVPSRFSGSGSGTDYTFTISSLQPEDIATYYCLQYEQLRTFGGGTKVEIKRTVAAPSVFIFPPSDEQLKSGTASVVCLLNNFYPREAKVQWKVDNALQSGNSQESVTEQDSKDSTYSLSSTLTLSKADYEKHKVYACEVTHQGLSSPVTKSFNRGEC
B5: H240-Kn061 (Y234S)/H240-Hl071/L73-k0 (antibody, human IgG1, kappa)
heavy 1: B4 heavy 1 with H233S
heavy 2: B4 heavy 2
light: B4 light
B6: H240-Kn061 (Y235E)/H240-Hl071/L73-k0 (antibody, human IgG1, kappa)
heavy 1: B4 heavy 1 with H233Y, Y234E
heavy 2: B4 heavy 2
light: B4 light
B7: H240-Kn061 (Y235F)/H240-Hl071/L73-k0 (antibody, human IgG1, kappa)
heavy 1: B4 heavy 1 with H233Y, Y234F
heavy 2: B4 heavy 2
light: B4 light
B8: H240-Kn061 (Y235L)/H240-Hl071/L73-k0 (antibody, human IgG1, kappa)
heavy 1: B4 heavy 1 with H233Y, Y234L
heavy 2: B4 heavy 2
light: B4 light
B9: H240-Kn061 (Y235M)/H240-Hl071/L73-k0 (antibody, human IgG1, kappa)
heavy 1: B4 heavy 1 with H233Y, Y234M
heavy 2: B4 heavy 2
light: B4 light
B10: H240-Kn061 (Y235N)/H240-Hl071/L73-k0 (antibody, human IgG1, kappa)
heavy 1: B4 heavy 1 with H233Y, Y234N
heavy 2: B4 heavy 2
light: B4 light
B11: H240-Kn061 (Y235T)/H240-Hl071/L73-k0 (antibody, human IgG1, kappa)
heavy 1: B4 heavy 1 with H233Y, Y234T
heavy 2: B4 heavy 2
light: B4 light
B12: H240-Kn061 (Y235W)/H240-Hl071/L73-k0 (antibody, human IgG1, kappa)
heavy 1: B4 heavy 1 with H233Y, Y234W
heavy 2: B4 heavy 2
light: B4 light
notes: also called H240-Kn061 Y2351N

Target: T3, FcγRIa extracellular domain with C-terminal His tag (human, UniProt P12314 16-292)
T3 construct: extracellular domain; Soluble receptor expressed in FreeStyle293 cells, used as analyte in Biacore; also called FcgRI; CD64; not shown: His tag at the C terminus
Test: SPR (Biacore), antibody captured via antigen peptide, FcγR as analyte; binding relative to GpH7-A5/GpH7-B3/GpL16-k0 = 100

T3 sequence (P12314 16-292): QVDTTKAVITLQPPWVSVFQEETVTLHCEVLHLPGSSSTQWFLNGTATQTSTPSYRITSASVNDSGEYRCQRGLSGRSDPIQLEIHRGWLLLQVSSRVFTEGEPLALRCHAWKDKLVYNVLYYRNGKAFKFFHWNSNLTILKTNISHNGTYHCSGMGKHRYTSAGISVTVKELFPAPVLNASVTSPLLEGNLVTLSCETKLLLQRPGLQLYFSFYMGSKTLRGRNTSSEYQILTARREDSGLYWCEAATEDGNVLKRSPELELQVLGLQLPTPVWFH

Compared with B1, B2 is lower in He/Con_1a: 93.8 % of control (GpH7-A5/GpH7-B3/GpL16-k0 = 100) for the first, 68 % of control (GpH7-A5/GpH7-B3/GpL16-k0 = 100) for the second.

With B3 the He/Con_1a was 86.5 % of control (GpH7-A5/GpH7-B3/GpL16-k0 = 100).

Target: T1, FcγRIIb extracellular domain with …
Test: as above

First: B1
Second: B2
The He/Con_2b of the first is higher: 44.1 % of control (GpH7-A5/GpH7-B3/GpL16-k0 = 100) for the first, 24.7 % of control (GpH7-A5/GpH7-B3/GpL16-k0 = 100) for the second.

In the case of B3, the He/Con_2b is reported as 39.1 % of control (GpH7-A5/GpH7-B3/GpL16-k0 = 100).

Target: T3, FcγRIa extracellular domain with …
Test: SPR (Biacore); ratio of He/Con_1a (FcγRIa) to He/Con_2b (FcγRIIb) of the same antibody

Compared with B1, B2 is higher in “Ia/IIb He_1a/2b” value: 2.13 for the first, 2.75 for the second.

In the case of B3, the “Ia/IIb He_1a/2b” value is reported as 2.21.

Target: T4, FcgRIIIa V (human, UniProt P08637 17-208)
T4 construct: extracellular domain; also called FcγRIIIa V; not shown: His tag attached to the C terminus
Test: SPR (Biacore); KD of H240-Kn061/H240-Hl071/L73-k0 divided by KD of the variant
Experimental: (§1) The antibodies were assessed for the binding to each FcgR. […] The resultant value was defined as relative KD, and used as an assessment indicator.
(§2) Analysis of interaction between obj ective antibody and the FcγR was carried out using Biacore T100 (GE Healthcare), Biacore T200, Biacore A100, and Biacore 4000. HBS-EP+ (GE Healthcare) was used as the running buffer, and the measurement temperature was set to 25° C. Chips produced by immobilizing the antigen peptide by the amine coupling method to a Series S sensor Chip CM5 (GE Healthcare), chips produced by allowing preliminarily biotinylated antigen peptides to interact with and immobilize onto a Series S Sensor Chip SA (certified) (GE Healthcare), chips produced by immobilizing Protein L (ACTIGEN, BioVision) to Series S Sencor Chip CM5 (GE Healthcare), or chips produced by immobilizing Protein A/G (Thermo Scientific) to Series S Sencor Chip CM5 (GE Healthcare) were used. Antibodies of interest were captured onto these chips, and allowed to interact to each FcγR diluted with running buffer.

T4 sequence (P08637 17-208 F176V limits assumed): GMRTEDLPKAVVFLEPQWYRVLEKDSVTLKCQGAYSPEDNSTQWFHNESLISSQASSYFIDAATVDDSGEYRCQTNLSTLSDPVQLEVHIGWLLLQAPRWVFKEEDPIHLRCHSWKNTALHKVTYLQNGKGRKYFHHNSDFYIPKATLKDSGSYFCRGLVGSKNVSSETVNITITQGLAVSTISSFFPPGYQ

B4 and B5 are the same in “Relative KD” value: 0.9 for the first, 0.9 for the second.

First: B6
Second: B7
The “Relative KD” value of the first is higher: 3.2 for the first, 1.5 for the second.

Going from B8 to B9, the “Relative KD” value rises from 1.5 to 1.8.

First: B10
Second: B11
The “Relative KD” value of the first is higher: 2 for the first, 1.1 for the second.

For B12, the “Relative KD” value was 1.3.

Target: T2, FcgRIIb
Test: as above
Experimental: as §1, §2

Going from B4 to B5, the “Relative KD” value falls from 1.3 to 1.

Going from B6 to B7, the “Relative KD” value rises from 0.8 to 1.2.

Compared with B8, B9 is lower in “Relative KD” value: 0.9 for the first, 0.7 for the second.

Going from B10 to B11, the “Relative KD” value falls from 0.7 to 0.6.

B12 was tested, and the “Relative KD” value was 1.3.

Target: T5, FcgRIIIa F (human, UniProt P08637 17-208)
T5 construct: extracellular domain; also called FcγRIIIa F; 3aF; not shown: His tag attached to the C terminus
Test: as above
Experimental: as §1, §2

T5 sequence (P08637 17-208): as the sequence (P08637 17-208 F176V limits assumed) above, with V160F counted along it

Compared with B4, B5 is higher in “Relative KD” value: 0.8 for the first, 0.9 for the second.

Compared with B6, B7 is lower in “Relative KD” value: 2.2 for the first, 1.3 for the second.

Going from B8 to B9, the “Relative KD” value falls from 1.8 to 1.7.

Going from B10 to B11, the “Relative KD” value falls from 1.3 to 0.9.

For B12, the “Relative KD” value was 1.1.
